Test results published in patent US20170209529A1 (BRIGHAM AND WOMEN S HOSPITAL, published 2017).
Values joined by “and” are separate entries in the source; they are usually repeats but may differ in a detail not shown here. Equal entries are not always repeated. Bridge positions count the residues as written; N and C are the ends.

Experiments:
[1] = target: T1, soluble human FcRn (shFcRn) (human, UniProt P55899 24-297; P61769 21-119); assay: SPR (Biacore), Kd pH 7.4 divided by Kd pH 6.0
T1 construct: For crystallography it was expressed in CHOK1SV cells and deglycosylated with PNGaseF; biotinylated for phage selection; also called hFcRn/β2m; FcRn-biotin

[2] = target: T1, soluble human FcRn (shFcRn); assay: SPR (Biacore), immobilized shFcRn, pH 7.4
[3] = target: T1, soluble human FcRn (shFcRn); assay: SPR (Biacore), immobilized shFcRn, pH 6, steady-state fit
[4] = target: T1, soluble human FcRn (shFcRn); assay: SPR (Biacore), immobilized shFcRn, pH 6
[5] = target: T1, soluble human FcRn (shFcRn); assay: SPR (Biacore), immobilized shFcRn, pH 6, steady-state fit; remark: listed apart in the source

T1 sequence (P55899 24-297 limits assumed, chain 1 of 2): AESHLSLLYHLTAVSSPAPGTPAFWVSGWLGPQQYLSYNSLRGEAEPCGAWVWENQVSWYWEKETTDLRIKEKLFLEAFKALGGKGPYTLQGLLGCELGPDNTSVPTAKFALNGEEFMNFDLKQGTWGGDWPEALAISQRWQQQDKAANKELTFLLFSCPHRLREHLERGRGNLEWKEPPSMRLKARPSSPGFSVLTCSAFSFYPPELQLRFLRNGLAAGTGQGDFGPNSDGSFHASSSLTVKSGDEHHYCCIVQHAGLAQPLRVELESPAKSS
T1 sequence (P61769 21-119 limits assumed, chain 2 of 2): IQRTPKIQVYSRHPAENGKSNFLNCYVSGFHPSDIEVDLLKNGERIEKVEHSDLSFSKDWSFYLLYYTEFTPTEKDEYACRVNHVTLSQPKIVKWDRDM

Ac-AMTCKWDDGFSCEYV-NH2 (disulfide 4-12 (inferred)) [SYN1144]
Kd Ratio 7.4/6.0 [1]: 23.3
Kd [2]: 29.1 µM
Kd [3]: 1.25 µM

Ac-YMTCKWDDGFSCEAV-NH2 (disulfide 4-12 (inferred)) [SYN1155]
Kd Ratio 7.4/6.0 [1]: 9.8
Kd [2]: 17.3 µM
Kd [3]: 1.76 µM

Ac-YMTCKWDDGFSCAYV-NH2 (disulfide 4-12 (inferred)) [SYN1154]
Kd Ratio 7.4/6.0 [1]: 20
Kd [2]: 9.2 µM

Ac-YMTCKWDDAFSCEYV-NH2 (disulfide 4-12 (inferred)) [SYN1151]
Kd Ratio 7.4/6.0 [1]: 25
Kd [2]: 20.7 µM
Kd [3]: 1.5 µM and 0.83 µM

Ac-YMTCKWADGFSCEYV-NH2 (disulfide 4-12 (inferred)) [SYN1149]
Kd Ratio 7.4/6.0 [1]: 7.8
Kd [2]: 12 µM
Kd [3]: 1.54 µM

Ac-YMTCKWDDGFSCEYA-NH2 (disulfide 4-12 (inferred)) [SYN1156]
Kd Ratio 7.4/6.0 [1]: 38
Kd [2]: 22 µM
Kd [3]: 0.58 µM

Ac-YMTCKADDGFSCEYV-NH2 (disulfide 4-12 (inferred)) [SYN1148]
binding result [4]: no binding

Ac-MTCKWDDGFSCEYV-NH2 (disulfide 3-11 (inferred)) [SYN1161]
Kd [3]: 1.21 µM and 1.17 µM

Ac-RYFCTKWKHGWCEEVGTGGGK-NH2 (disulfide 4-12 (inferred)) [SYN1706]
Kd [5]: 0.9 µM

Ac-AGRYFCTKWKHGWCEEVGTGG-NH2 (disulfide 6-14 (inferred)) [SYN1708]
Kd [5]: 0.57 µM

Ac-VMKCWWDEEMLCRAF-NH2 (disulfide 4-12 (inferred)) [SYN1532]
Kd Ratio 7.4/6.0 [1]: 112
Kd [2]: 17.3 µM
Kd [3]: 0.154 µM

Ac-VMRCWWDEEMLCRAF-NH2 (disulfide 4-12 (inferred)) [SYN1534]
Kd Ratio 7.4/6.0 [1]: 125
Kd [2]: 20.2 µM
Kd [3]: 0.162 µM

Ac-VMKCWWDEEMLCEAF-NH2 (disulfide 4-12 (inferred)) [SYN1538]
Kd Ratio 7.4/6.0 [1]: 71
Kd [2]: 18.9 µM
Kd [3]: 0.267 µM

Ac-VMKCWWDEEMLCRAV-NH2 (disulfide 4-12 (inferred); not fully specified) [SYN1540B]
Kd [3]: 0.702 µM

Ac-VMKCWWDEEMLCRAV-NH2 (disulfide 4-12 (inferred); not fully specified) [SYN1540A]
Kd Ratio 7.4/6.0 [1]: 80
Kd [2]: 45.7 µM
Kd [3]: 0.572 µM

Ac-VMHCWWDEEMLCRAF-NH2 (disulfide 4-12 (inferred)) [SYN1533]
Kd Ratio 7.4/6.0 [1]: 106
Kd [2]: 59.1 µM
Kd [3]: 0.558 µM

Ac-VMKCFWDEEMLCRAF-NH2 (disulfide 4-12 (inferred)) [SYN1535]
Kd Ratio 7.4/6.0 [1]: 35
Kd [2]: 91.3 µM
Kd [3]: 2.6 µM

Ac-VMKCWWDEEMLCRYF-NH2 (disulfide 4-12 (inferred)) [SYN1539]
Kd Ratio 7.4/6.0 [1]: 83
Kd [2]: 8.6 µM
Kd [3]: 0.104 µM

Ac-AGRYFCTKWKHGWCEEVGTG-NH2 (disulfide 6-14 (inferred)) [SYN1709]
Kd [5]: 0.68 µM

Ac-AGRYFCTKWKHGWCEEVG-NH2 (disulfide 6-14 (inferred)) [SYN1711]
Kd [5]: 1.56 µM

Ac-AGRYFCTKWKHGWCEEVGTGGG-NH2 (disulfide 6-14 (inferred)) [SYN1707]
Kd [5]: 0.49 µM

Ac-VMHCFWDEEFKCDQG-NH2 (disulfide 4-12 (inferred)) [SYN1197]
Kd Ratio 7.4/6.0 [1]: 84
Kd [2]: 62 µM
Kd [3]: 0.74 µM

Ac-VMHCFWDEEFKCDQV-NH2 (disulfide 4-12 (inferred)) [SYN1260]
Kd Ratio 7.4/6.0 [1]: 73
Kd [2]: 22 µM
Kd [3]: 0.3 µM

Ac-VMHCFWDEEFRCDYG-NH2 (disulfide 4-12 (inferred)) [SYN1381]
Kd Ratio 7.4/6.0 [1]: 82
Kd [2]: 4.9 µM
Kd [3]: 0.06 µM

Ac-YMHCFWDEEFKCDQG-NH2 (disulfide 4-12 (inferred)) [SYN1256]
Kd Ratio 7.4/6.0 [1]: 69
Kd [2]: 50 µM
Kd [3]: 0.72 µM

Ac-VMHCFWDEAFKCDQG-NH2 (disulfide 4-12 (inferred)) [SYN1216]
Kd Ratio 7.4/6.0 [1]: 52
Kd [2]: 186 µM
Kd [3]: 3.6 µM

Ac-VMHCFWDEEFKCEQG-NH2 (disulfide 4-12 (inferred)) [SYN1258]
Kd Ratio 7.4/6.0 [1]: 65
Kd [2]: 24 µM
Kd [3]: 0.37 µM

Ac-VMHCFWDEEFKCDYG-NH2 (disulfide 4-12 (inferred)) [SYN1259]
Kd Ratio 7.4/6.0 [1]: 132
Kd [2]: 12 µM
Kd [3]: 0.091 µM

Ac-VMACFWDEEFKCDQG-NH2 (disulfide 4-12 (inferred)) [SYN1215]
Kd [3]: 2.84 µM

Ac-VMHCFWDEAFRCDQG-NH2 (disulfide 4-12 (inferred)) [SYN1382]
Kd Ratio 7.4/6.0 [1]: 25
Kd [2]: 112 µM
Kd [3]: 4.4 µM

Ac-VMHCFWDEGFKCDQG-NH2 (disulfide 4-12 (inferred)) [SYN1257]
Kd [2]: 40 µM
Kd [3]: 1.45 µM

Ac-AGRYFCTKWKHGWCEEV-NH2 (disulfide 6-14 (inferred)) [SYN1712]
Kd [5]: 4.62 µM

Ac-AGRYFCTKWKHGWCEEVGT-NH2 (disulfide 6-14 (inferred)) [SYN1710]
Kd [5]: 0.59 µM

Ac-AGVMKCWWDEEMLCRAFGTGGGK-NH2 (disulfide 6-14 (inferred)) [SYN531]
Kd Ratio 7.4/6.0 [1]: 99
Kd [2]: 44.4 µM
Kd [3]: 0.45 µM and 0.3 µM

Ac-AYFCTKWKHGWCEEV-NH2 (disulfide 4-12 (inferred)) [SYN1542]
Kd [5]: 13.8 µM

Ac-RYFCTKWKAGWCEEV-NH2 (disulfide 4-12 (inferred)) [SYN1549]
Kd [5]: 27.4 µM

Ac-RYFCTKWAHGWCEEV-NH2 (disulfide 4-12 (inferred)) [SYN1548]
Kd [5]: 9.3 µM

Ac-RAFCTKWKHGWCEEV-NH2 (disulfide 4-12 (inferred)) [SYN1543]
Kd [5]: 67.5 µM

Ac-RYFCTAWKHGWCEEV-NH2 (disulfide 4-12 (inferred)) [SYN1546]
Kd [5]: 14.2 µM

Ac-RYFCTKWKHAWCEEV-NH2 (disulfide 4-12 (inferred)) [SYN1550]
Kd [5]: 39.4 µM

Ac-RYFCAKWKHGWCEEV-NH2 (disulfide 4-12 (inferred)) [SYN1545]
Kd [5]: 9.3 µM

Ac-RYACTKWKHGWCEEV-NH2 (disulfide 4-12 (inferred)) [SYN1544]
Kd [5]: 7.7 µM

Ac-RYFCTKWKHGWCEAV-NH2 (disulfide 4-12 (inferred)) [SYN1553]
Kd [5]: 9.5 µM

Ac-GRYFCTKWKHGWCEEVGTGGGK-NH2 (disulfide 5-13 (inferred)) [SYN1705]
Kd [5]: 0.84 µM
